Measured values reported in patent US20200155655.

Biological target: Vps34 (vacuolar protein sorting 34), endogenous in MEF cell lysate (UniProt Q6PF93)
Sequence (Q6PF93 whole entry): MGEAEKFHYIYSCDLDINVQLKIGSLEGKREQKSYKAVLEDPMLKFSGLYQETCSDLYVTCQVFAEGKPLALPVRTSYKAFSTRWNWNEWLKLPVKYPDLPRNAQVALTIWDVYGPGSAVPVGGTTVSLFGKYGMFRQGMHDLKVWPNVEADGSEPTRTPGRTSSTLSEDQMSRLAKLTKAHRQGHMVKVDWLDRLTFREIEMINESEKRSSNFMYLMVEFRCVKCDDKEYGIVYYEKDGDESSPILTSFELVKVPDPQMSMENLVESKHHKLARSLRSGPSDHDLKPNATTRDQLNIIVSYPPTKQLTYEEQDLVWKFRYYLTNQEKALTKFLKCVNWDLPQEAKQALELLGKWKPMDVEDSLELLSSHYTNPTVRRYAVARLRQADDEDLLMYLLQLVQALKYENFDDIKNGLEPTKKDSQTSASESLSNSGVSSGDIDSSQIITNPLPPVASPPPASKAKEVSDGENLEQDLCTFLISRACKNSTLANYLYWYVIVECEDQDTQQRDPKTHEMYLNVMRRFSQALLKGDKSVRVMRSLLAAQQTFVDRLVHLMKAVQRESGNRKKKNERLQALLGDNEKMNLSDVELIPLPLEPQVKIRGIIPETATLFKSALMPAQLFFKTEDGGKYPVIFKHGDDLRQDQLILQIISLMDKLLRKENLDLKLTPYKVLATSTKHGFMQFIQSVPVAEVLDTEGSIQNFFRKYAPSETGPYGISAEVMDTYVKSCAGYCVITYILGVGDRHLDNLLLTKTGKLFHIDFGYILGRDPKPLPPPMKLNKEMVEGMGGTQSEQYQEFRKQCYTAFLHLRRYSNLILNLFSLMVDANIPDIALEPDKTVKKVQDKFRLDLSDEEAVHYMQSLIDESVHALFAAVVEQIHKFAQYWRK

Chain of purified GST-LRS protein (chain, as listed by the source): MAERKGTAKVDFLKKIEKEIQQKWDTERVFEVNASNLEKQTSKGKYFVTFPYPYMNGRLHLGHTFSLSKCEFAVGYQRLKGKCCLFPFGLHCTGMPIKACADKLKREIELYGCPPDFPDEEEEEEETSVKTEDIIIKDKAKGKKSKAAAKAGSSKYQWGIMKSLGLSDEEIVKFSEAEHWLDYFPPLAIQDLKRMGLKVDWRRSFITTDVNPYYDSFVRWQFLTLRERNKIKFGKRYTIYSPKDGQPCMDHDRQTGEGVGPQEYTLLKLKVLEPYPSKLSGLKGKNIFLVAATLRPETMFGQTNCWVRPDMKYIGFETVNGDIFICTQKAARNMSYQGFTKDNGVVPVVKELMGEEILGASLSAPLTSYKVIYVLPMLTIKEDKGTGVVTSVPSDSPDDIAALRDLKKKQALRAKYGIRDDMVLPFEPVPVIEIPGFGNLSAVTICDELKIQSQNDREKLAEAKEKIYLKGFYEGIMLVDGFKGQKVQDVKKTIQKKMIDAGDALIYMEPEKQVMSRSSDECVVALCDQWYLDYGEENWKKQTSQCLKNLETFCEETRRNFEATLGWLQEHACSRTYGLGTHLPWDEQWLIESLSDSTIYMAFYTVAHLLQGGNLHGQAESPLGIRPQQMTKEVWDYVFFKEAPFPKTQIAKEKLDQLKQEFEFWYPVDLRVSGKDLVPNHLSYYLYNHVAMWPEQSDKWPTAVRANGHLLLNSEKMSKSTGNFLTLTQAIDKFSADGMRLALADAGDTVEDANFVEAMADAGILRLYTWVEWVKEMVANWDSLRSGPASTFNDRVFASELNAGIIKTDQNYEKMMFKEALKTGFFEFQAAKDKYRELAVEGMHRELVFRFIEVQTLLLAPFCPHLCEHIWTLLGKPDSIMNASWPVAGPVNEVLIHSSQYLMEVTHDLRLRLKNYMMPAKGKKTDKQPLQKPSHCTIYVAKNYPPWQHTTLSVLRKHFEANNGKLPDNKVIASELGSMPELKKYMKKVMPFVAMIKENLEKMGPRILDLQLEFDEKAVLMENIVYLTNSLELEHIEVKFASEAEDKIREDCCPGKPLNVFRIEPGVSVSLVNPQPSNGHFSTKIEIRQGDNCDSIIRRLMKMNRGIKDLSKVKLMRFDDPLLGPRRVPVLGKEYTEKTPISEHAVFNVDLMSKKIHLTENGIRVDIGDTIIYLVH
Chain of GST-LRS mutation (F50A/Y52A) (chain, as listed by the source F50A Y52A): as the sequence (chain, as listed by the source) above, with F50A, Y52A counted along it

Substance	activity of Vps34 (in vitro Vps34 lipid kinase assay)	activity of Vps34 (in vitro Vps34 lipid kinase assay), with leucine
GST-LRS mutation (F50A/Y52A)	LRS mutation (F50A/Y52A) did not induce the activation of Vps34, regardless of the presence or absence of leucine stimulation	–
purified GST-LRS protein	the activity of Vps34 was increased by about 3 times compared to the GST control	the activity was further increased by leucine stimulation
